These results are taken from PMC3875231 (Nature, 2013).

The target in the experiment is MalK, ATPase subunit of the maltose transporter (E. coli, UniProt P68187 1-371). Description: crystal structure.
Sequence of MalK, ATPase subunit of the maltose transporter (P68187 whole entry): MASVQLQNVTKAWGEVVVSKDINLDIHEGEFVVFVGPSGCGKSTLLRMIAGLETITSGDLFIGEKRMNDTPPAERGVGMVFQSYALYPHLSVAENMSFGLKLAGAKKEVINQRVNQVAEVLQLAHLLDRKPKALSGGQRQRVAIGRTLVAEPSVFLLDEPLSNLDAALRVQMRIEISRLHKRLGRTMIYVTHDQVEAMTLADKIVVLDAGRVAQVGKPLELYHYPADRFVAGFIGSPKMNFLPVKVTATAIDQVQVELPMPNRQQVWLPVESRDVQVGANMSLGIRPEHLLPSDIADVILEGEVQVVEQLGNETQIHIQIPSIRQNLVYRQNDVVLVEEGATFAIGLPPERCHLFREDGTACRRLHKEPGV

B1: glucose-specific enzyme IIA (EIIA^Glc), full-length (natural protein, E. coli, UniProt P69783 1-169, looked up)
chain: MGLFDKLKSLVSDDKKDTGTIEIIAPLSGEIVNIEDVPDVVFAEKIVGDGIAIKPTGNKMVAPVDGTIGKIFETNHAFSIESDSGVELFVHFGIDTVELKGEGFKRIAEEGQRVKVGDTVIEFDLPLLEEKAKSTLTPVVISNMDEIKELIKLSGSVTVGETPVIRIKK
As for B1, the binding result is given as “binds”.
